This is an account of results in patent CN110903391A (DONGDA BIOTECHNOLOGY SUZHOU CO LTD, dated 2020).

Assay [1] concerns the target T1, PD-L1 on 293T-PD-L1细胞 (human, UniProt Q9NZQ7 19-290).
T1 construct: whole, on cells; Construct not described
Kind of assay: FACS on 293T-PD-L1 cells.

For assay [2], the target named is T2, PD-L1-ECD-hFc (human, UniProt Q9NZQ7 19-238).
T2 construct: extracellular domain; Coated on the ELISA plate; also called PD-L1-hFc; PD-L1-hFc蛋白; not shown: hFc: human Fc
As to the kind of experiment: ELISA, PD-L1-ECD-hFc coated. In general terms: An ELISA detects its analyte on a solid surface through an enzyme-linked reagent.

The target in assay [3] is T1, PD-L1 on 293T-PD-L1细胞. Kind of assay: competition FACS on 293T-PD-L1 cells, competitor PD-1-biotin.
Assay [4] has as its target T2, PD-L1-ECD-hFc. As to the kind of experiment: competition ELISA, PD-L1-ECD-hFc coated, competitor PD-1-biotin.
Another assay addresses 带组氨酸标签的PD-L1抗原 (UniProt Q9NZQ7). Kind of assay: Biacore 3000 SPR, antibody captured by anti-human IgG on CM5, PD-L1-His as analyte. A general note: SPR reads the build-up and loss of mass on a sensor chip optically.

A word on the EC50: it is the concentration at which the effect is half-maximal. Read a low EC50 as an effect from little substance. One may read the IC50 as the midpoint of a concentration-inhibition curve.

T1 sequence (Q9NZQ7 19-290): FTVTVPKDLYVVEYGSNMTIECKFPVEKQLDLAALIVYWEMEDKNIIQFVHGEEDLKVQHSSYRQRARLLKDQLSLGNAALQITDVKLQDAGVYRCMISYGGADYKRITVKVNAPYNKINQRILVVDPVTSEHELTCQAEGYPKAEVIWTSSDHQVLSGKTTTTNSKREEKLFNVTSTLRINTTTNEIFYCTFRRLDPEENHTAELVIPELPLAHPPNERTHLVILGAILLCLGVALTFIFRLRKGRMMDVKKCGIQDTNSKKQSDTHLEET
T2 sequence (Q9NZQ7 19-238): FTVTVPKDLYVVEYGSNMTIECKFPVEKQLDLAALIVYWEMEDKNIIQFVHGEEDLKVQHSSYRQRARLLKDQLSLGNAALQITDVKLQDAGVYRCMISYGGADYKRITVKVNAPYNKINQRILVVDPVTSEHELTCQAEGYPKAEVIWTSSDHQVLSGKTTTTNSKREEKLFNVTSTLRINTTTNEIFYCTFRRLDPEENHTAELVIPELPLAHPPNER

B1: 6F9B1A6人源化完整抗体 (antibody, human IgG1, kappa, V domains shown)
VH: QVQLVQSGAEVKKPGSSVKVSCKASGYTFIGYTVHWVRQAPGQGLEWIGWFYPGSGSIKYNEKFKDRATLTADKSTSTVYMELSSLRSEDTAVYYCARHGTGKFNYFDVWGQGTTVTVSS
VL: DIQLTQSPSFLSASVGDRVTITCRASSTVSYMHWYQQKPGKAPKPWIYATFNLASGVPSRFSGSGSGTEYTLTISSLQPEDFATYYCQPWSSYPLTFGQGTKLEIKR
notes: Humanized IgG1; expressed in 293 cells; also called hu6F9B1A6; 人源化的6F9B1A6抗体
B1: the EC50 came to 0.0412 µg/mL with PD-L1 on 293T-PD-L1细胞 [1] and 0.00448 µg/mL in the assay with PD-L1-ECD-hFc [2]. In addition, the IC50 stood at 0.0365 µg/mL with PD-L1 on 293T-PD-L1细胞 [3] and 0.108 µg/mL with PD-L1-ECD-hFc [4].

B2: 亲和力成熟的人源化6C8D8抗体(重链Seq ID 43, 轻链Seq ID 44) (antibody, V domains shown)
VH: QITLKESGPTLVKPTQTLTLTCTVSGFSLTSYDISWIRQPPGKALEWLGVIWTGGGTTYNSAFMSRLTITKDNSKNQVVLTMTNMDPVDTATYYCVRGRDWDFDYWGQGTLVTVSS
VL: EIVLTQSPDFQSVTPKEKVTITCRASQSIGTSIHWYQQKPDQSPKLLIKYVSESISGVPSRFSGSGSGTDFTLTINSLEAEDAATYYCQQSNSWPFTFGQGTKLEIK
As for B2, the fold increase of affinity against humanized 6C8D8 in the assay with 带组氨酸标签的PD-L1抗原 was 9.25 倍 (fold).

B3: 6C8D8人源化完整抗体 (antibody, human IgG1, kappa, V domains shown)
VH: QITLKESGPTLVKPTQTLTLTCTVSGFSLTSYDISWIRQPPGKALEWLGVIWTGGGTNYNSAFMSRLTITKDNSKNQVVLTMTNMDPVDTATYYCVRGRDWDFDYWGQGTLVTVSS
VL: EIVLTQSPDFQSVTPKEKVTITCRASQSIGTSIHWYQQKPDQSPKLLIKYASESISGVPSRFSGSGSGTDFTLTINSLEAEDAATYYCQQSNSWPFTFGQGTKLEIKR
notes: Humanized IgG1; expressed in 293 cells; also called hu6C8D8; 人源化的6C8D8抗体
In the case of B3, the figures for the EC50 in the assay with PD-L1 on 293T-PD-L1细胞 [1] and with PD-L1-ECD-hFc [2] were 0.0413 µg/mL and 0.00224 µg/mL, respectively. Further, the values for the IC50 with PD-L1 on 293T-PD-L1细胞 [3] and with PD-L1-ECD-hFc [4] were 0.0437 µg/mL and 0.139 µg/mL, respectively.

B4: 亲和力成熟的人源化10E9C7G2抗体(重链Seq ID 48, 轻链Seq ID 50) (antibody, V domains shown)
VH: QVQLQQSGPGLVKPSQTLSLTCAISGDSVSSGYWNWIRQSPSRGLEYMGYISYTGSTYYSLSLKSRITINRDTSKNQYSLQLNSVTPEDTAVYYCARGDYGSDWPPWFAYWGQGTTVTVSS
VL: DIQMTQSPSSLSASVGDRVTITCSASISISSNSLQWYQQKPGKAPKLLIYRTTNLPSGVPSRFSGSGSGTDYTLTISSLQPEDFATYYCQQSGGLPLTFGQGTKLEIK
With B4, the fold increase of affinity against humanized 10E9C7G2 with 带组氨酸标签的PD-L1抗原 is 7.2 倍 (fold).

B5: 10E9C7G2人源化完整抗体 (antibody, human IgG1, kappa, V domains shown)
VH: QVQLQQSGPGLVKPSQTLSLTCAISGDSITSGYWNWIRQSPSRGLEYMGYISYTGSTYYNLSLKSRITINRDTSKNQYSLQLNSVTPEDTAVYYCARGDYGSDWPPWFAYWGQGTTVTVSS
VL: DIQMTQSPSSLSASVGDRVTITCSASSSISSNSLQWYQQKPGKAPKLLIYRTTNLPSGVPSRFSGSGSGTDYTLTISSLQPEDFATYYCQQSSGLPLTFGQGTKLEIKR
notes: Humanized IgG1; expressed in 293 cells; also called hu10E9C7G2; 人源化的10E9C7G2抗体
Take B5: the EC50 in the assay with PD-L1 on 293T-PD-L1细胞 [1] worked out at 0.0392 µg/mL; in the assay with PD-L1-ECD-hFc [2], 0.000684 µg/mL. The values for the IC50 with PD-L1 on 293T-PD-L1细胞 [3] and in the assay with PD-L1-ECD-hFc [4] were 0.0327 µg/mL and 0.147 µg/mL, respectively.

B6: 亲和力成熟的人源化10E9C7G2抗体(重链Seq ID 49, 轻链Seq ID 50) (antibody, V domains shown)
VH: QVQLQQSGPGLVKPSQTLSLTCAISGDSVSSGYWNWIRQSPSRGLEYMGYISYTGSTYYDLSLKSRITINRDTSKNQYSLQLNSVTPEDTAVYYCARGDYGSDWPPWFAYWGQGTTVTVSS
VL: DIQMTQSPSSLSASVGDRVTITCSASISISSNSLQWYQQKPGKAPKLLIYRTTNLPSGVPSRFSGSGSGTDYTLTISSLQPEDFATYYCQQSGGLPLTFGQGTKLEIK
For the molecule B6, in the assay with 带组氨酸标签的PD-L1抗原, the fold increase of affinity against humanized 10E9C7G2 is 4.8 倍 (fold).
